Laboratory results as given in the supplement of paper PMC10567573.

B1: KRT15 (parent)
chain: SNFHINVEESVDGQVVSSHKREI

Variants of: B1
Assay: protein stability index of a GFP-peptide fusion (GPS, HEK-293T) (PSI 1-6); higher = more stable
Details: c terminus: native
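Also: lentivirally expressed fusions sorted by FACS into six bins by GFP to DsRed ratio, PSI derived from sequencing read proportions per bin multiplied by bin number.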

Protein stability index: each site, then its substitutions
H19: K 2.95; F 1.33; D 5; P 4.66; S 4.55; N 4.44
E9: Q 1.47; G 1.54; P 2.26; K 1; C 2.73; D 2.21; M 3.34; F 3.74
S18: A 1.37; K 2.06; T 1.63; D 3.92; M 1; E 3.06; N 2.72; C 2.21
G13: K 2.29; V 1.55; S 1.81; H 1.64; T 2.18; E 1.89; Q 1.96; L 1.78
E8: G 1.42; R 2.02; A 1.57; Y 2.88; S 2.03; T 1.34; D 1.8
Q14: F 1.99; A 2.04; H 1.6; M 1.32; S 1.94; N 2.05; D 2.33; R 2.01
I23: F 4.74; A 4.14; P 3.83; C 4.94; M 2.52; Y 4.55
S1: I 2.56; C 1.57; A 2.11; P 2.35; T 2.73
S17: E 2.91; A 2.37; Q 1.68; I 1.12; F 2.65; R 1.7; G 2.73; P 1.43
I5: P 2.98; H 3.01; V 3.37; E 3.97; N 3.36; C 4.36
V11: G 1.7; K 1.53; S 2.48; E 2.36; Q 2.3; I 2.17; N 2.33; L 1.34; H 1.83; T 1.67
D12: E 2.21; Q 2.07; T 2.21; I 1.34; Y 1; W 3.13; H 2.38; P 1.95; R 3.65
V15: D 2.82; Y 2.12; I 2.11; F 1.96; P 2.84; N 2.52; L 1.78
K20: F 2.07; D 3.86; Q 2.77; C 2.39; V 2.4
V7: R 2.78; M 1.14; P 2.14; D 2.01; K 2.1; Q 2.88; A 2.76
N6: Q 2.27; I 3.69; D 1.54; G 2.24; M 2.11; P 1.9; E 1.88
F3: H 3.1; E 2.33; L 1.84; K 2.7; T 2.69; R 2.87; Q 2.5; P 2.15; A 2.51
H4: P 2.57; I 2.12; Q 1.52; A 1.98; G 2.5; M 1.59; Y 2.37; E 3.18
E22: W 3.94; R 2.87; I 4.12; H 4.64
R21: F 4.32; V 3.79; A 4.45; I 3.16; S 5.13; H 3.9; W 3.38; K 4.88; E 5.02; Y 4.83; C 4.43; D 4.89
S10: L 1.38; G 2.19; I 1.34; E 2.57; H 1.95; C 3.07; V 1.87; A 2.85; N 2.09
N2: F 2.6; S 1.96; K 1.36; E 1.69
V16: S 2.18; M 2.23; L 2.37; Y 2; E 2.85; P 2.18
